# Experimental data: article PMC11063116
# Residue numbers refer to the chain shown, from its start. Names may count otherwise.
# B1: BvHSS (homospermidine synthase) (Blastochloris viridis) (protein)
# chain: MTDWPVYHRIDGPIVMIGFGSIGRGTLPLIERHFAFDRSKLVVIDPSDEARKLAEARGVRFIQQAVTRDNYRELLVPLLTAGPGQGFCVNLSVDTSSLDIMELARENGALYIDTVVEPWLGFYFDPDLKPEARSNYALRETVLAARRNKPGGTTAVSCCGANPGMVSWFVKQALVNLAADLGVTGEEPTTREEWARLAMDLGVKGIHIAERDTQRASFPKPFDVFVNTWSVEGFVSEGLQPAELGWGTFERWMPDNARGHDSGCGAGIYLLQPGANTRVRSWTPTAMAQYGFLVTHNESISIADFLTVRDAAGQAVYRPTCHYAYHPCNDAVLSLHEMFGSGKRQSDWRILDETEIVDGIDELGVLLYGHGKNAYWYGSQLSIEETRRIAPDQNATGLQVSSAVLAGMVWALENPNAGIVEADDLDFRRCLEVQTPYLGPVVGVYTDWTPLAGRPGLFPEDIDTSDPWQFRNVLVRD
# B2: BvHSS (homospermidine synthase) (Blastochloris viridis; D361E/E232D) (protein)
# chain: B1 chain with E232D, D361E
# B3: BvHSS (homospermidine synthase) (Blastochloris viridis; D361E) (protein)
# chain: B1 chain with D361E
# Substrate: NCCCN
# Assay: purified protein
# Conditions: 2 mM putrescine, 0.6 mM NAD+, 100 mM Tris-HCl pH 9, 50 °C
Protein,Km [µM],kcat [s⁻¹],kcat/Km [M⁻¹ s⁻¹]
B1,490 ± 30,13.6,27800
B2,310 ± 20,21.1,68000
B3,430 ± 60,19.3,45000
